Values quoted from earlier work as cited in publication PMC3433420.
Read-outs that look alike come from different tables or passages of the source.

What was measured:
Conditions in all cases: cited from earlier work
PIK3R1-NC (Homo sapiens) [1] = molecular target: PIK3R1-NC (Homo sapiens) (UniProt P27986)
PIK3R1-N (Homo sapiens) [2] = molecular target: PIK3R1-N (Homo sapiens) (UniProt P27986)
VAV1 (Homo sapiens) [3] = molecular target: VAV1 (Homo sapiens) (UniProt P15498)
PIK3R3-NC (Homo sapiens) [4] = molecular target: PIK3R3-NC (Homo sapiens) (UniProt Q92569)
PIK3R3-N (Homo sapiens) [5] = molecular target: PIK3R3-N (Homo sapiens) (UniProt Q92569)
SYK-NC (Homo sapiens) [6] = molecular target: SYK-NC (Homo sapiens) (UniProt P43405)
RASA1-N (Homo sapiens) [7] = molecular target: RASA1-N (Homo sapiens) (UniProt P20936)
PIK3R3-C (Homo sapiens) = PIK3R3-C (Homo sapiens) (UniProt Q92569)
ABL2 (Homo sapiens) [8] = molecular target: ABL2 (Homo sapiens) (UniProt P42684)
PIK3R2-NC (Homo sapiens) [9] = molecular target: PIK3R2-NC (Homo sapiens) (UniProt O00459)
TENC1 (Homo sapiens) [10] = molecular target: TENC1 (Homo sapiens) (UniProt Q63HR2)
PLCG2-N (Homo sapiens) = PLCG2-N (Homo sapiens) (UniProt P16885)
PLCG2-NC (Homo sapiens) [11] = molecular target: PLCG2-NC (Homo sapiens) (UniProt P16885)
GRB7 (Homo sapiens) [12] = molecular target: GRB7 (Homo sapiens) (UniProt Q14451)
YES1 (Homo sapiens) [13] = molecular target: YES1 (Homo sapiens) (UniProt P07947)
RASA1-NC (Homo sapiens) [14] = molecular target: RASA1-NC (Homo sapiens) (UniProt P20936)
BLK (Homo sapiens) = BLK (Homo sapiens) (UniProt P51451)
VAV1 (Homo sapiens) [15] = molecular target: VAV1 (Homo sapiens) (UniProt P15498); remark: listed apart in the source
VAV2 (Homo sapiens) = VAV2 (Homo sapiens) (UniProt P52735)
SYK-NC (Homo sapiens) [16] = molecular target: SYK-NC (Homo sapiens) (UniProt P43405); remark: listed apart in the source
SHF (Homo sapiens) = SHF (Homo sapiens) (UniProt Q7M4L6)
PIK3R1-C (Homo sapiens) = PIK3R1-C (Homo sapiens) (UniProt P27986)
SHE (Homo sapiens) = SHE (Homo sapiens) (UniProt Q5VZ18)
ITK (Homo sapiens) = ITK (Homo sapiens) (UniProt Q08881)
PIK3R1-NC (Homo sapiens) [17] = molecular target: PIK3R1-NC (Homo sapiens) (UniProt P27986); remark: listed apart in the source
SHC1-PTB (Homo sapiens) [18] = molecular target: SHC1-PTB (Homo sapiens) (UniProt P29353)
NCK2 (Homo sapiens) = NCK2 (Homo sapiens) (UniProt O43639)
RASA1-NC (Homo sapiens) [19] = molecular target: RASA1-NC (Homo sapiens) (UniProt P20936); remark: listed apart in the source
ABL2 (Homo sapiens) [20] = molecular target: ABL2 (Homo sapiens) (UniProt P42684); remark: listed apart in the source
YES1 (Homo sapiens) [21] = molecular target: YES1 (Homo sapiens) (UniProt P07947); remark: listed apart in the source
SH2D3C (Homo sapiens) = SH2D3C (Homo sapiens) (UniProt Q8N5H7)
GRB7 (Homo sapiens) [22] = molecular target: GRB7 (Homo sapiens) (UniProt Q14451); remark: listed apart in the source
PIK3R3-NC (Homo sapiens) [23] = molecular target: PIK3R3-NC (Homo sapiens) (UniProt Q92569); remark: listed apart in the source
GRB10 (Homo sapiens) = GRB10 (Homo sapiens) (UniProt Q13322)
SH2D1B (Homo sapiens) = SH2D1B (Homo sapiens) (UniProt O14796)
TNS3 (Homo sapiens) = TNS3 (Homo sapiens) (UniProt Q68CZ2)
SRC (Homo sapiens) = SRC (Homo sapiens) (UniProt P12931)
SHB (Homo sapiens) [24] = molecular target: SHB (Homo sapiens) (UniProt Q15464)
RASA1-C (Homo sapiens) = RASA1-C (Homo sapiens) (UniProt P20936)
VAV3 (Homo sapiens) = VAV3 (Homo sapiens) (UniProt Q9UKW4)
TENC1 (Homo sapiens) [25] = molecular target: TENC1 (Homo sapiens) (UniProt Q63HR2); remark: listed apart in the source
RASA1-NC (Homo sapiens) [26] = molecular target: RASA1-NC (Homo sapiens) (UniProt P20936); remark: listed apart in the source
PIK3R3-NC (Homo sapiens) [27] = molecular target: PIK3R3-NC (Homo sapiens) (UniProt Q92569); remark: listed apart in the source
PLCG2-NC (Homo sapiens) [28] = molecular target: PLCG2-NC (Homo sapiens) (UniProt P16885); remark: listed apart in the source
SLA (Homo sapiens) = SLA (Homo sapiens) (UniProt Q13239)
RASA1-N (Homo sapiens) [29] = molecular target: RASA1-N (Homo sapiens) (UniProt P20936); remark: listed apart in the source
ABL2 (Homo sapiens) [30] = molecular target: ABL2 (Homo sapiens) (UniProt P42684); remark: listed apart in the source
ABL2 (Homo sapiens) [31] = molecular target: ABL2 (Homo sapiens) (UniProt P42684); remark: listed apart in the source
YES1 (Homo sapiens) [32] = molecular target: YES1 (Homo sapiens) (UniProt P07947); remark: listed apart in the source
SHB (Homo sapiens) [33] = molecular target: SHB (Homo sapiens) (UniProt Q15464); remark: listed apart in the source
PIK3R1-N (Homo sapiens) [34] = molecular target: PIK3R1-N (Homo sapiens) (UniProt P27986); remark: listed apart in the source
PIK3R2-NC (Homo sapiens) [35] = molecular target: PIK3R2-NC (Homo sapiens) (UniProt O00459); remark: listed apart in the source
PIK3R3-NC (Homo sapiens) [36] = molecular target: PIK3R3-NC (Homo sapiens) (UniProt Q92569); remark: listed apart in the source
PIK3R2-N (Homo sapiens) = PIK3R2-N (Homo sapiens) (UniProt O00459)
PIK3R3-N (Homo sapiens) [37] = molecular target: PIK3R3-N (Homo sapiens) (UniProt Q92569); remark: listed apart in the source
ABL2 (Homo sapiens) [38] = molecular target: ABL2 (Homo sapiens) (UniProt P42684); remark: listed apart in the source
PIK3R1-NC (Homo sapiens) [39] = molecular target: PIK3R1-NC (Homo sapiens) (UniProt P27986); remark: listed apart in the source
ABL2 (Homo sapiens) [40] = molecular target: ABL2 (Homo sapiens) (UniProt P42684); remark: listed apart in the source
SHC1-PTB (Homo sapiens) [41] = molecular target: SHC1-PTB (Homo sapiens) (UniProt P29353); remark: listed apart in the source

Sequence of YES1 (Homo sapiens) (P07947 153-260): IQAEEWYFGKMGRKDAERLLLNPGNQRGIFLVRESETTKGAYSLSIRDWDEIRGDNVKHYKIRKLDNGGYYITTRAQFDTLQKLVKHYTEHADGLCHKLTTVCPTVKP
Sequence of RASA1-NC (Homo sapiens) (P20936 176-446): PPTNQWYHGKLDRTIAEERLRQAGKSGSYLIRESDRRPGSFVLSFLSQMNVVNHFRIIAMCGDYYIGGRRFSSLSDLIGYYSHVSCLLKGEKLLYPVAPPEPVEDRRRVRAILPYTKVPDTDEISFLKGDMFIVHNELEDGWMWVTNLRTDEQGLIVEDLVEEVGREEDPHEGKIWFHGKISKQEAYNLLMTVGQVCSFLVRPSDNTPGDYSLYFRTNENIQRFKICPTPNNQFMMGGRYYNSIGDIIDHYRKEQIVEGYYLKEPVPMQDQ
Sequence of ABL2 (Homo sapiens) (P42684 168-268): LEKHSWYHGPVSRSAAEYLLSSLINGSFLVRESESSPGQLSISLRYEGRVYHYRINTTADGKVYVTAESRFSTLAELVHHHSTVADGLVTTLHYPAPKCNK
Sequence of PIK3R1-NC (Homo sapiens) (P27986 328-723): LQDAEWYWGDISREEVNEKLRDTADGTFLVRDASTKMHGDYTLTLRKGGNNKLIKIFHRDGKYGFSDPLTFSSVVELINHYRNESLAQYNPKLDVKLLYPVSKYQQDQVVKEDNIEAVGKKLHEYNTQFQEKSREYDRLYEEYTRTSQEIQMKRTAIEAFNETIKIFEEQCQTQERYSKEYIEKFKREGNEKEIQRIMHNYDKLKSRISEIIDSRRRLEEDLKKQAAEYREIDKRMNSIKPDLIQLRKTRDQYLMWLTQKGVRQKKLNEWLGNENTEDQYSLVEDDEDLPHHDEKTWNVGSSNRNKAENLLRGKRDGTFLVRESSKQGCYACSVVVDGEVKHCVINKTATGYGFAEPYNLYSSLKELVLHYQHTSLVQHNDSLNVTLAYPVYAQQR
Sequence of SHB (Homo sapiens) (Q15464 405-509): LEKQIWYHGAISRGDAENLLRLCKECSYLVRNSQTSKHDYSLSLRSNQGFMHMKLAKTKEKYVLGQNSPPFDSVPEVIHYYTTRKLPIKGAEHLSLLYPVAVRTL
Sequence of SHC1-PTB (Homo sapiens) (P29353 483-583): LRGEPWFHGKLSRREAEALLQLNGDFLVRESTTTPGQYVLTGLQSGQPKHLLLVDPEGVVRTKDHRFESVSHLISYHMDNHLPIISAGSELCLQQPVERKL
Sequence of GRB7 (Homo sapiens) (Q14451 426-532): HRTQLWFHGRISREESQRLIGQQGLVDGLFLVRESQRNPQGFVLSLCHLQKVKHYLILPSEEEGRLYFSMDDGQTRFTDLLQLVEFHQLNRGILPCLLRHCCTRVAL
Sequence of TENC1 (Homo sapiens) (Q63HR2 1135-1252): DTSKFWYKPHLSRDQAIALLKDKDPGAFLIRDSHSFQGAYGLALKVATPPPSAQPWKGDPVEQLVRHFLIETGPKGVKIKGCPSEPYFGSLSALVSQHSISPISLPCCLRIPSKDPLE
Sequence of PIK3R2-NC (Homo sapiens) (O00459 325-721): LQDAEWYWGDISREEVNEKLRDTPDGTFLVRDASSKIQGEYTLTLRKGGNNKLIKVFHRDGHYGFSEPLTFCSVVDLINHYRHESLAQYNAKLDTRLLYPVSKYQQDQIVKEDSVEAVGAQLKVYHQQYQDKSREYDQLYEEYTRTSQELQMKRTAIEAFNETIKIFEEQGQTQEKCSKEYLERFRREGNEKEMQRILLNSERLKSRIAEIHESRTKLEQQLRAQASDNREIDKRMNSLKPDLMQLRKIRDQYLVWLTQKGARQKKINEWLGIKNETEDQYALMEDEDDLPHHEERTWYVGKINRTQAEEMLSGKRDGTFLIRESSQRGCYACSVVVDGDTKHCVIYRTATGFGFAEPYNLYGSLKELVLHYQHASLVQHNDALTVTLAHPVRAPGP
Sequence of RASA1-N (Homo sapiens) (P20936 176-446): as the sequence (P20936 176-446) above
Sequence of VAV1 (Homo sapiens) (P15498 666-770): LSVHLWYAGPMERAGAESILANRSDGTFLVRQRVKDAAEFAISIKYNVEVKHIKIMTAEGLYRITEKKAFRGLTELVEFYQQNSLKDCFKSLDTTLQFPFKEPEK
Sequence of PIK3R1-N (Homo sapiens) (P27986 328-723): as the sequence (P27986 328-723) above
Sequence of PLCG2-NC (Homo sapiens) (P16885 527-740): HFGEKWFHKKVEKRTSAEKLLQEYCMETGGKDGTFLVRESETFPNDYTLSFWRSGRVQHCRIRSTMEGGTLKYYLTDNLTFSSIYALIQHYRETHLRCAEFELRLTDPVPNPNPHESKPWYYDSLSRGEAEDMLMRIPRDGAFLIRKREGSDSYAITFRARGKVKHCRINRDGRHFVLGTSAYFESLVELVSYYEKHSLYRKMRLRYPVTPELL
Sequence of TNS3 (Homo sapiens) (Q68CZ2 1167-1287): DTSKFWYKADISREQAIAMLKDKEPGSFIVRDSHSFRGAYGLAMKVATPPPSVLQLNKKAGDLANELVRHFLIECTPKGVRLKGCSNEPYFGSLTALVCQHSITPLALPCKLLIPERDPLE
Sequence of VAV2 (Homo sapiens) (P52735 668-772): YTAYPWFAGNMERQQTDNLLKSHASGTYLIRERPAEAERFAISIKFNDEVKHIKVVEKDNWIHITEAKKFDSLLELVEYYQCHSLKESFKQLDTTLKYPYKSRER
Sequence of SHF (Homo sapiens) (Q7M4L6 318-423): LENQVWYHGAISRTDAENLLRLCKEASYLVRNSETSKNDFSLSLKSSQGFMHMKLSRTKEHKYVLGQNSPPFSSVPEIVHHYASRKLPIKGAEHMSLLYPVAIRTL
Sequence of GRB10 (Homo sapiens) (Q13322 488-579): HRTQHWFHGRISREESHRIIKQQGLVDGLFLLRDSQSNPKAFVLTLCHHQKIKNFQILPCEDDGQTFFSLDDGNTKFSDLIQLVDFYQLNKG
Sequence of PIK3R2-N (Homo sapiens) (O00459 325-721): as the sequence (O00459 325-721) above
Sequence of RASA1-C (Homo sapiens) (P20936 176-446): as the sequence (P20936 176-446) above
Sequence of VAV3 (Homo sapiens) (Q9UKW4 667-771): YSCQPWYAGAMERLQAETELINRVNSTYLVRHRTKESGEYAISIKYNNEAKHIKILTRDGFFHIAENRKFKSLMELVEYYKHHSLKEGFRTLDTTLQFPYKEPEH
Sequence of SHE (Homo sapiens) (Q5VZ18 390-495): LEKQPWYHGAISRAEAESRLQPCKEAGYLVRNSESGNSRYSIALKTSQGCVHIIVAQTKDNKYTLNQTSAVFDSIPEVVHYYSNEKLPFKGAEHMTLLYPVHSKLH
Sequence of PIK3R1-C (Homo sapiens) (P27986 328-723): as the sequence (P27986 328-723) above
Sequence of SLA (Homo sapiens) (Q13239 79-180): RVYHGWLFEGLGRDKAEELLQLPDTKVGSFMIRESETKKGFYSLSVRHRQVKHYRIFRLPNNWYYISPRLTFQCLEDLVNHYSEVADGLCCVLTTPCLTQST
Sequence of BLK (Homo sapiens) (P51451 119-225): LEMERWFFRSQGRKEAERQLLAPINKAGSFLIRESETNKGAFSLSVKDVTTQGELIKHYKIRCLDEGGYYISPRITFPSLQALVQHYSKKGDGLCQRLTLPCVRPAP
Sequence of NCK2 (Homo sapiens) (O43639 280-380): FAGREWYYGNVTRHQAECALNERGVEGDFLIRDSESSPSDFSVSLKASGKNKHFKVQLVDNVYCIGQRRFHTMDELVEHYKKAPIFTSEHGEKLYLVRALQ
Sequence of SH2D3C (Homo sapiens) (Q8N5H7 215-324): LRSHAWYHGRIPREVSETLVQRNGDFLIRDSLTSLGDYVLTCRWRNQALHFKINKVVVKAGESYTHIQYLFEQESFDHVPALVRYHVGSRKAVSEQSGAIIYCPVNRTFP
Sequence of SH2D1B (Homo sapiens) (O14796 1-106): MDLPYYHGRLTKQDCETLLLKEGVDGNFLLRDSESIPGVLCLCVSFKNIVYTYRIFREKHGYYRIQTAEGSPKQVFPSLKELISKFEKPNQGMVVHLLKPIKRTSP
Sequence of ITK (Homo sapiens) (Q08881 234-343): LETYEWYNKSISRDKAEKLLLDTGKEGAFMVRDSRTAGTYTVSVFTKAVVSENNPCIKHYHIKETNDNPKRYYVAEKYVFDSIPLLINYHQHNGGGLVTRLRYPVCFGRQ
Sequence of PLCG2-N (Homo sapiens) (P16885 527-740): as the sequence (P16885 527-740) above

…pYEYMDVGS
apparent Kd (screen) (PIK3R1-NC (Homo sapiens) [1]): 375 nM | apparent Kd (screen) (PIK3R1-N (Homo sapiens) [2]): 1250 nM | apparent Kd (screen) (VAV1 (Homo sapiens) [3]): 2000 nM | apparent Kd (screen) (PIK3R3-NC (Homo sapiens) [4]): 97 nM | apparent Kd (screen) (PIK3R3-N (Homo sapiens) [5]): 553 nM | apparent Kd (screen) (SYK-NC (Homo sapiens) [6]): 851 nM | apparent Kd (screen) (RASA1-N (Homo sapiens) [7]): 671 nM | apparent Kd (screen) (PIK3R3-C (Homo sapiens)): 270 nM | apparent Kd (screen) (ABL2 (Homo sapiens) [8]): 158 nM | apparent Kd (screen) (PIK3R2-NC (Homo sapiens) [9]): 385 nM | apparent Kd (screen) (TENC1 (Homo sapiens) [10]): 903 nM

…pYHADGGKVd
apparent Kd (screen) (PLCG2-N (Homo sapiens)): 647 nM | apparent Kd (screen) (PLCG2-NC (Homo sapiens) [11]): 1100 nM | apparent Kd (screen) (GRB7 (Homo sapiens) [12]): 1200 nM | apparent Kd (screen) (YES1 (Homo sapiens) [13]): 1890 nM | apparent Kd (screen) (RASA1-NC (Homo sapiens) [14]): 1400 nM | apparent Kd (screen) (BLK (Homo sapiens)): 718 nM

…pYLLNWCVQd
apparent Kd (screen) (VAV1 (Homo sapiens) [15]): 373 nM | apparent Kd (screen) (VAV2 (Homo sapiens)): 472 nM | apparent Kd (screen) (SYK-NC (Homo sapiens) [16]): 240 nM | apparent Kd (screen) (SHF (Homo sapiens)): 1060 nM | apparent Kd (screen) (PIK3R1-C (Homo sapiens)): 1850 nM | apparent Kd (screen) (SHE (Homo sapiens)): 1380 nM | apparent Kd (screen) (ITK (Homo sapiens)): 310 nM | apparent Kd (screen) (PIK3R1-NC (Homo sapiens) [17]): 1820 nM | apparent Kd (screen) (SHC1-PTB (Homo sapiens) [18]): 1500 nM | apparent Kd (screen) (NCK2 (Homo sapiens)): 195 nM | apparent Kd (screen) (RASA1-NC (Homo sapiens) [19]): 155 nM | apparent Kd (screen) (ABL2 (Homo sapiens) [20]): 201 nM | apparent Kd (screen) (YES1 (Homo sapiens) [21]): 22 nM | apparent Kd (screen) (SH2D3C (Homo sapiens)): 52 nM | apparent Kd (screen) (GRB7 (Homo sapiens) [22]): 456 nM | apparent Kd (screen) (PIK3R3-NC (Homo sapiens) [23]): 1870 nM | apparent Kd (screen) (GRB10 (Homo sapiens)): 353 nM | apparent Kd (screen) (SH2D1B (Homo sapiens)): 1600 nM | apparent Kd (screen) (TNS3 (Homo sapiens)): 1890 nM | apparent Kd (screen) (SRC (Homo sapiens)): 84 nM | apparent Kd (screen) (SHB (Homo sapiens) [24]): 276 nM | apparent Kd (screen) (RASA1-C (Homo sapiens)): 1950 nM | apparent Kd (screen) (VAV3 (Homo sapiens)): 960 nM | apparent Kd (screen) (TENC1 (Homo sapiens) [25]): 1140 nM

…pYMDVGSDL
apparent Kd (screen) (RASA1-NC (Homo sapiens) [26]): 2000 nM | apparent Kd (screen) (PIK3R3-NC (Homo sapiens) [27]): 1510 nM | apparent Kd (screen) (PLCG2-NC (Homo sapiens) [28]): 2000 nM | apparent Kd (screen) (SLA (Homo sapiens)): 2000 nM | apparent Kd (screen) (RASA1-N (Homo sapiens) [29]): 2000 nM | apparent Kd (screen) (ABL2 (Homo sapiens) [30]): 1130 nM

…pYSSDPTGAd
apparent Kd (screen) (ABL2 (Homo sapiens) [31]): 2000 nM | apparent Kd (screen) (YES1 (Homo sapiens) [32]): 295 nM | apparent Kd (screen) (SHB (Homo sapiens) [33]): 862 nM

…pYTPMSGNQd
apparent Kd (screen) (PIK3R1-N (Homo sapiens) [34]): 541 nM | apparent Kd (screen) (PIK3R2-NC (Homo sapiens) [35]): 461 nM | apparent Kd (screen) (PIK3R3-NC (Homo sapiens) [36]): 576 nM | apparent Kd (screen) (PIK3R2-N (Homo sapiens)): 201 nM | apparent Kd (screen) (PIK3R3-N (Homo sapiens) [37]): 888 nM | apparent Kd (screen) (ABL2 (Homo sapiens) [38]): 659 nM | apparent Kd (screen) (PIK3R1-NC (Homo sapiens) [39]): 1440 nM

…pYWNHSLPPd
apparent Kd (screen) (ABL2 (Homo sapiens) [40]): 34 nM | apparent Kd (screen) (SHC1-PTB (Homo sapiens) [41]): 509 nM
